Reference: patent US20090276160A1 (published 2009)

Key:
Assay in all cases: cell-based or functional assay
[1] = biological target: T1, Matriptase (residues 615-855) (human, UniProt Q9Y5Y6 615-855)
T1 sequence (looked up): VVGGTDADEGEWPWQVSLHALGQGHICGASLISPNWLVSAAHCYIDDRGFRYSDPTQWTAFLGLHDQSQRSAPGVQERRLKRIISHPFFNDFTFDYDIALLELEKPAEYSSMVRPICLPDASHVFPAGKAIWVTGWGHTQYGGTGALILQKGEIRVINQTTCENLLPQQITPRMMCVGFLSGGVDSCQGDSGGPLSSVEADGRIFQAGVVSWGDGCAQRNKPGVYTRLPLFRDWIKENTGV

[2] = biological target: T2, Hepatocyte growth factor activator (HGFA), activated 34 kDa short form, residues Val373 to Ser655 with a … (human, UniProt Q04756 408-655, single N-acetylglucosamine attached to Asn74 (chymotrypsinogen numbering))
T2 sequence 1: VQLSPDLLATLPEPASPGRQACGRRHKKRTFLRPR
T2 sequence 2: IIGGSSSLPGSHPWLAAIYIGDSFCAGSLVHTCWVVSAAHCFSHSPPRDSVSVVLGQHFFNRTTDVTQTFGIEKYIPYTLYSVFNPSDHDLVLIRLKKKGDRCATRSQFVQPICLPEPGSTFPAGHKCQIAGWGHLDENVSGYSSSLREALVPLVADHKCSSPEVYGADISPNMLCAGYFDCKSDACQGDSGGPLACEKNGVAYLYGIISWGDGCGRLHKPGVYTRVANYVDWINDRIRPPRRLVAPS

[3] = biological target: Factor XIa (Haematologic Technologies) (human, UniProt P03951 19-625)
[4] = biological target: Tissue factor/factor VIIa complex: human tissue factor (residues 1-219) with human recombinant FVIIa (human, UniProt P13726 33-251; P08709 61-466)
[5] = biological target: Activated Protein C (Haematologic Technologies) (human, UniProt P04070 43-197; P04070 212-461)
[6] = biological target: tPA (Activase, Genentech) (human, UniProt P00750 36-562)
[7] = biological target: Plasma kallikrein (American Diagnostica) (human, UniProt P03952 20-638)
[8] = biological target: Factor Xa (Haematologic Technologies) (human, UniProt P00742 41-179; P00742 235-488, limits assumed)
uPA (Chemicon) = uPA (Chemicon) (human, UniProt P00749 21-431, limits assumed)
Chymotrypsin (Sigma) = Chymotrypsin (Sigma) (human, UniProt P17538 19-263)
[9] = biological target: Plasmin (Haematologic Technologies) (human, UniProt P00747 97-810, limits assumed)
[10] = biological target: Bovine trypsin (Worthington) (bovine, UniProt P00760 24-246)
[11] = biological target: Thrombin (Haematologic Technologies) (human, UniProt P00734 328-622)
Hepsin (residues 45-417) = Hepsin (residues 45-417) (human, UniProt P05981 45-417)
[12] = biological target: T3, Factor XIIa (American Diagnostica) (human, UniProt P00748 20-615, limits assumed)
T3 sequence (looked up): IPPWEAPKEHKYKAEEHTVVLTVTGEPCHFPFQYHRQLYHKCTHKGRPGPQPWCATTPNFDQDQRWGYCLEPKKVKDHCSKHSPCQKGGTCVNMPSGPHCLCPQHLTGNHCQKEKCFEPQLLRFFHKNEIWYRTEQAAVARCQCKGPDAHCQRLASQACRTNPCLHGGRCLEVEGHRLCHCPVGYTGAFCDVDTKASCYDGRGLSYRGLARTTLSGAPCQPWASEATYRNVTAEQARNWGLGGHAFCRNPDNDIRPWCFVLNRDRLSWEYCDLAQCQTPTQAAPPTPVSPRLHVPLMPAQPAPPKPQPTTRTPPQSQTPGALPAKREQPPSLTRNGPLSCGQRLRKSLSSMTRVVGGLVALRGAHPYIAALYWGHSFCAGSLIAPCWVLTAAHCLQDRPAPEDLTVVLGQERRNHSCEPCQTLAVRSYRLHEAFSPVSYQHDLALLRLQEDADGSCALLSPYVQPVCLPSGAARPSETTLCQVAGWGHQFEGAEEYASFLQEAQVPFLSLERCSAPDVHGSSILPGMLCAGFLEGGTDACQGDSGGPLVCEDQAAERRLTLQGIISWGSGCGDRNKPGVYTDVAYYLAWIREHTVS

[13] = biological target: T4, Complement factor C1s (Calbiochem) (human, UniProt P09871 16-688)
T4 sequence (looked up): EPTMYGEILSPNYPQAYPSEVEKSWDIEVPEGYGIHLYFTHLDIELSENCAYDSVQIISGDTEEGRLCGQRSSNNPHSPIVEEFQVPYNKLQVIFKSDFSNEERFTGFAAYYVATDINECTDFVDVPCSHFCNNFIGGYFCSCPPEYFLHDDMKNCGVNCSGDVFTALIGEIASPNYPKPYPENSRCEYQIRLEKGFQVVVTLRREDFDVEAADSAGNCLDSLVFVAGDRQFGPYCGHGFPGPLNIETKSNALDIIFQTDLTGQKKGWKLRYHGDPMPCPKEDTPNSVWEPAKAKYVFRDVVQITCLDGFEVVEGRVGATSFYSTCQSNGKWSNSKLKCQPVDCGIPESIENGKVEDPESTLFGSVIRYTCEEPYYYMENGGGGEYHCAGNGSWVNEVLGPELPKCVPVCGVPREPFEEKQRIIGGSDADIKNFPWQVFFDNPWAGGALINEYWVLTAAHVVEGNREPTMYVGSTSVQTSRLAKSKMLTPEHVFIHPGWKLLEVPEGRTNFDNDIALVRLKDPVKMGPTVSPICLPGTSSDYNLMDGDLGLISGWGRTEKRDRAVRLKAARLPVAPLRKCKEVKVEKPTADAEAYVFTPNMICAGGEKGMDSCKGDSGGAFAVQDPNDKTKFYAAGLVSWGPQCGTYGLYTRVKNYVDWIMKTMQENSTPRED

Bovine trypsin (Worthington), sequence (P00760 24-246): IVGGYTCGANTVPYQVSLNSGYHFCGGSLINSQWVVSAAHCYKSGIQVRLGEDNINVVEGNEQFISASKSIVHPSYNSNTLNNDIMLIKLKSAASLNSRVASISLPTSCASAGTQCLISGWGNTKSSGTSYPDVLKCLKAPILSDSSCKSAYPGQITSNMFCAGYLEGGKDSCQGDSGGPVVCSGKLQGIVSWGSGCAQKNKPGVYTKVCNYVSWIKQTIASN
tPA (Activase, Genentech), sequence (P00750 36-562 limits assumed): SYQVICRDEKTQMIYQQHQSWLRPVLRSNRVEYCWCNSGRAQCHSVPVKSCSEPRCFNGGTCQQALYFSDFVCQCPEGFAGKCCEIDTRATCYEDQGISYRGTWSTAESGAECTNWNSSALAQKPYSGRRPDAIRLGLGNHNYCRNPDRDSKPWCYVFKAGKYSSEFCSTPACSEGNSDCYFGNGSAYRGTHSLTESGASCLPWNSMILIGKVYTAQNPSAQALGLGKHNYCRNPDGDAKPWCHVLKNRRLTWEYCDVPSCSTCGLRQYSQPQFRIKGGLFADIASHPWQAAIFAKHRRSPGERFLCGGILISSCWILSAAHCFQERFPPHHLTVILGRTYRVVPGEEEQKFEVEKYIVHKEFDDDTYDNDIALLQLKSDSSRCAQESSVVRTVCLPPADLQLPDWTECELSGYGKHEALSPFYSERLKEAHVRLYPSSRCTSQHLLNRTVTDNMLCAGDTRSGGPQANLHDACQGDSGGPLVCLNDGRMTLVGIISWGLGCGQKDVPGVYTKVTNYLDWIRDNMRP
Chymotrypsin (Sigma), sequence (P17538 19-263): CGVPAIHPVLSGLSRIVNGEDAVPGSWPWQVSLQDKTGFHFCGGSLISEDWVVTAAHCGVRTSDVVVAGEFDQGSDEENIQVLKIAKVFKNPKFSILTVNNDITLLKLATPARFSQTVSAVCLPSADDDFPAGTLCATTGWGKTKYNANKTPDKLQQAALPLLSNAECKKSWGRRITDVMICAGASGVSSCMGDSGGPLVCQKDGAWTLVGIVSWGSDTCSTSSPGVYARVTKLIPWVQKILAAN
Hepsin (residues 45-417), sequence (P05981 45-417 limits assumed): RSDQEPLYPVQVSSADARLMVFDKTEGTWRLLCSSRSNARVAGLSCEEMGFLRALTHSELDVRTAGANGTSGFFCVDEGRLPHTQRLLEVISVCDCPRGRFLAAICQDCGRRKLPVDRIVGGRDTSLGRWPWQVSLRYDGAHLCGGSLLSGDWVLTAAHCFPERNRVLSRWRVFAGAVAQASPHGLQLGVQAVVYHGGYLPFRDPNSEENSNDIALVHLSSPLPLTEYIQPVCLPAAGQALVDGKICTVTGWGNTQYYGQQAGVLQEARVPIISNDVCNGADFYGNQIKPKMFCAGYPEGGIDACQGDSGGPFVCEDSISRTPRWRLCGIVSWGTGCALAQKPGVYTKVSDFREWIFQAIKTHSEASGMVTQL
Activated Protein C (Haematologic Technologies), sequence (P04070 43-197, form in doubt, chain 1 of 2): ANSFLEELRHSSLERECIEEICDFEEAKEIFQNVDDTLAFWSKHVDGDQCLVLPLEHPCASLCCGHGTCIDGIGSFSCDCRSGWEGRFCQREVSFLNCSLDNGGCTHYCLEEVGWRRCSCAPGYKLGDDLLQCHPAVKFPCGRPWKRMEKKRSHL
Activated Protein C (Haematologic Technologies), sequence (P04070 212-461, form in doubt, chain 2 of 2): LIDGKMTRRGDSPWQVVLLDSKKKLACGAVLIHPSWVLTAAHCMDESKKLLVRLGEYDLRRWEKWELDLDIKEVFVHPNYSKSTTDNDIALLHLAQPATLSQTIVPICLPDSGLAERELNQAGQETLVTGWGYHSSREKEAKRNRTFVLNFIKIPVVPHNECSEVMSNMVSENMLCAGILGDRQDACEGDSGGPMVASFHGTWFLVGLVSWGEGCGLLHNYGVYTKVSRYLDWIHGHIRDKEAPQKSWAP
Tissue factor/factor VIIa complex: human tissue factor (residues 1-219) with human recombinant FVIIa, sequence (P13726 33-251 limits assumed, chain 1 of 2): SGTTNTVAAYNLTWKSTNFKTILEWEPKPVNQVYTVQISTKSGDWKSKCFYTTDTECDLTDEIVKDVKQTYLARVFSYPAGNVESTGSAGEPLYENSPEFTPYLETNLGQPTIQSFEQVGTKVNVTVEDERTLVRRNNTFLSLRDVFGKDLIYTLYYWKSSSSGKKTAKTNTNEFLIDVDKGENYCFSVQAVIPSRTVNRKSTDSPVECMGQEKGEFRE
Tissue factor/factor VIIa complex: human tissue factor (residues 1-219) with human recombinant FVIIa, sequence (P08709 61-466 limits assumed, chain 2 of 2): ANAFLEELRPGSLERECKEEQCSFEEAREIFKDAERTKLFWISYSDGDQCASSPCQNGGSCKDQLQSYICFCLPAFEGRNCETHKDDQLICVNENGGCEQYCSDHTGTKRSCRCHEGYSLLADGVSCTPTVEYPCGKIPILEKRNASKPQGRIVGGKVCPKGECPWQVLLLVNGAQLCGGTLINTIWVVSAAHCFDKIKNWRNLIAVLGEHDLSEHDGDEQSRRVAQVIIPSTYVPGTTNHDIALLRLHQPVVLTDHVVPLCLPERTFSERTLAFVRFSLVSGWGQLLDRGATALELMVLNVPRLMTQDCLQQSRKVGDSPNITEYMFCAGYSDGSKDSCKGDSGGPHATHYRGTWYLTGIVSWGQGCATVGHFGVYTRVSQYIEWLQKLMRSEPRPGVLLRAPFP
Plasma kallikrein (American Diagnostica), sequence (P03952 20-638 limits assumed): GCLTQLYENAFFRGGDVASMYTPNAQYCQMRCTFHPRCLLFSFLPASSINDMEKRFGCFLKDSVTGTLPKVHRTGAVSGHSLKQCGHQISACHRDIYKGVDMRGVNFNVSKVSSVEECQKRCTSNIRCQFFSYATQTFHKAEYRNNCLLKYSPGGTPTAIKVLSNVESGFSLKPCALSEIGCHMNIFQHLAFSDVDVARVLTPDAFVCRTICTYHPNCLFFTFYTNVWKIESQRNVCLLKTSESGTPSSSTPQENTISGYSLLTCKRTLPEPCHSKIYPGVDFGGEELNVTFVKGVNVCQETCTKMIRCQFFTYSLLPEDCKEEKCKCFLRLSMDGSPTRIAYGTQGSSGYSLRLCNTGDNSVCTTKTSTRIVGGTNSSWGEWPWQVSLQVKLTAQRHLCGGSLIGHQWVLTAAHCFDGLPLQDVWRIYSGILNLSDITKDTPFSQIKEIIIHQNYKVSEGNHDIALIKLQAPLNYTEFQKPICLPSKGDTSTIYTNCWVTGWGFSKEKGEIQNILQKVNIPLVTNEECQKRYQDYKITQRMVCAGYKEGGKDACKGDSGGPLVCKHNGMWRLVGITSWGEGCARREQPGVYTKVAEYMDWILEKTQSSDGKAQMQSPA
Factor Xa (Haematologic Technologies), sequence (P00742 41-179 limits assumed, chain 1 of 2): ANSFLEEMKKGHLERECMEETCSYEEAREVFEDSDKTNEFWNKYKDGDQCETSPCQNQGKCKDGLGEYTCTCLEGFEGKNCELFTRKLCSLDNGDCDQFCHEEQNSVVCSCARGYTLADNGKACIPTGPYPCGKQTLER
Factor Xa (Haematologic Technologies), sequence (P00742 235-488 limits assumed, chain 2 of 2): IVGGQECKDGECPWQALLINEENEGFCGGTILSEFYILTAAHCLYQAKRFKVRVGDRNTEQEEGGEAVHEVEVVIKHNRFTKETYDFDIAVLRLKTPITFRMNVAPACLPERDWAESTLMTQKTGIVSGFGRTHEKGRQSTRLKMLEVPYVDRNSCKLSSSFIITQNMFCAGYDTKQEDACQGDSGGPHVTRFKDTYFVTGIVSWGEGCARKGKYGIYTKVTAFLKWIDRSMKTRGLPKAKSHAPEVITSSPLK
Plasmin (Haematologic Technologies), sequence (P00747 97-810 limits assumed): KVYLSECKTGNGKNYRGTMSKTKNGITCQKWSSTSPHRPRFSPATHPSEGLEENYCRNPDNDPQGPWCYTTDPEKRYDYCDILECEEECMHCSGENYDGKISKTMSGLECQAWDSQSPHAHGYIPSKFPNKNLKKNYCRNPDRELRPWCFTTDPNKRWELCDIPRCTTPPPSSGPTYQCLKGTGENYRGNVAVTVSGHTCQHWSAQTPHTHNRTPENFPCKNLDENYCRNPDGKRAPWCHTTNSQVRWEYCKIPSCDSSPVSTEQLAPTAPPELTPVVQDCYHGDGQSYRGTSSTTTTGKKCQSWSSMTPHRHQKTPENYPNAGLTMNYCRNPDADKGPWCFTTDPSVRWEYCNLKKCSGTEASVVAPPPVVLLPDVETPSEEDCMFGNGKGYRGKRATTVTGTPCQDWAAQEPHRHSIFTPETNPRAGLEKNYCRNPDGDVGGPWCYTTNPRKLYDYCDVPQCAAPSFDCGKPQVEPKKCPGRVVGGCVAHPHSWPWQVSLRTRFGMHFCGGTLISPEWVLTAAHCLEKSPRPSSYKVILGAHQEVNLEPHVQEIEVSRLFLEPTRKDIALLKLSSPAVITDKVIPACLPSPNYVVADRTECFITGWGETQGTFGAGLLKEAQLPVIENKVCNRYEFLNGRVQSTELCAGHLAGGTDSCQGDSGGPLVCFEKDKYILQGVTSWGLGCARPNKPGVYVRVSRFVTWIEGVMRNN

B1: First Kunitz domain (KD1) of human HAI-1B, amino acids 246-303 of the precursor, with N-terminal polyhistidine leader (other)
chain: MKHQHQHQHQHQHQMHQTEDYCLASNKVGRCRGSFPRWYYDPTEQICKSFVYGGCLGNKNNYLREEECILACRGV
- IC50 (nM), inhibition of enzyme activity on chromogenic substrate [1]: 1.7 nM
- IC50 (nM), inhibition of enzyme activity on chromogenic substrate [2]: 4 nM
- IC50 (nM), inhibition of enzyme activity on chromogenic substrate [3]: > 1000 nM
- IC50 (nM), inhibition of enzyme activity on chromogenic substrate [4]: > 1000 nM
- IC50 (nM), inhibition of enzyme activity on chromogenic substrate [5]: > 1000 nM
- IC50 (nM), inhibition of enzyme activity on chromogenic substrate [6]: > 1000 nM
- IC50 (nM), inhibition of enzyme activity on chromogenic substrate [7]: 21 nM
- IC50 (nM), inhibition of enzyme activity on chromogenic substrate [8]: > 1000 nM
- IC50 (nM), inhibition of enzyme activity on chromogenic substrate (uPA (Chemicon)): > 1000 nM
- IC50 (nM), inhibition of enzyme activity on chromogenic substrate (Chymotrypsin (Sigma)): > 1000 nM
- IC50 (nM), inhibition of enzyme activity on chromogenic substrate [9]: 115 nM
- IC50 (nM), inhibition of enzyme activity on chromogenic substrate [10]: 0.7 nM
- IC50 (nM), inhibition of enzyme activity on chromogenic substrate [11]: > 1000 nM
- IC50 (nM), inhibition of enzyme activity on chromogenic substrate (Hepsin (residues 45-417)): 6.7 nM
- IC50 (nM), inhibition of enzyme activity on chromogenic substrate [12]: > 1000 nM
- IC50 (nM), inhibition of enzyme activity on chromogenic substrate [13]: > 1000 nM
